Laboratory results as given in patent US20250352661A1 (MYTHIC THERAPEUTICS, published 2025).
Numbering of substitutions follows the chain as printed. In names and notes the source's numbering stands.

T1: LRRC15 on LRRC15 positive cell lines SAOS2 and G292 (UniProt Q8TF66 22-581, limits assumed)
T1 construct: whole, on cells
T1 sequence (looked up): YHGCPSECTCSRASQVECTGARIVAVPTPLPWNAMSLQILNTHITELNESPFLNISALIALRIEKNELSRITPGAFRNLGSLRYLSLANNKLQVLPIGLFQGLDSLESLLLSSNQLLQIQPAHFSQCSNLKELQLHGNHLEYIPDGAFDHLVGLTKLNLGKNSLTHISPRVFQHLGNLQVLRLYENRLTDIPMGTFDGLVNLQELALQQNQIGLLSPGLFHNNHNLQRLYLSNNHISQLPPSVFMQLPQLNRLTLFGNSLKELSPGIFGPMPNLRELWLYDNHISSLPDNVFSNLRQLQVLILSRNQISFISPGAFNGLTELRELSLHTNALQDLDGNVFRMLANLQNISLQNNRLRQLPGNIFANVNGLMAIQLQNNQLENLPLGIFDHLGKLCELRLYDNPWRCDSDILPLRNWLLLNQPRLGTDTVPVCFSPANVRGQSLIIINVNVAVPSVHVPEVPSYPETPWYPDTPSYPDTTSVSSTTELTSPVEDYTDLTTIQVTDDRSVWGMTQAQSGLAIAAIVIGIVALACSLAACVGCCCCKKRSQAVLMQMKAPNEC

T2: LRRC15 on the surface of LRRC15+ cells (SAOS-2, U87MG) (UniProt Q8TF66 22-581, limits assumed)
T2 sequence (looked up): T1 sequence (looked up)

T3: Human LRRC15 Protein, His Tag (Acro Biosystems) (human, UniProt Q8TF66 22-538, limits assumed)
T3 sequence (looked up): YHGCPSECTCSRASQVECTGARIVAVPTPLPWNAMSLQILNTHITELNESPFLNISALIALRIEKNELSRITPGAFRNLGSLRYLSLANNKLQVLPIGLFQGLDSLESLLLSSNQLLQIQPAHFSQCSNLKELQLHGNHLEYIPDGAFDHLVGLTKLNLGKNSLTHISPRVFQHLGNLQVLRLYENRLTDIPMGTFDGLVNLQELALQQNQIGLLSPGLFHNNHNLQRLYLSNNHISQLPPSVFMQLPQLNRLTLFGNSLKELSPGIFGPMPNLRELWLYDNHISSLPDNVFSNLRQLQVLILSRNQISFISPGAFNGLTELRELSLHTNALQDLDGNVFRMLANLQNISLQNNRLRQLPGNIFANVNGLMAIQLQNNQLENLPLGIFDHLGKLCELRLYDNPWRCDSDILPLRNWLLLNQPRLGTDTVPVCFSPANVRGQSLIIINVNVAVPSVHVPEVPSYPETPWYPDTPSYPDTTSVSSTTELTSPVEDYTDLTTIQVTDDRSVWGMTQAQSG

B1: MYT8483 (antibody, IgG1, V domains shown)
VH: EVQLVESGGGLVQPGGSLRLSCTASGFSFSGSYWICWVRQAPGKGLEWVGCINGGSLDITYYASWAKGRFTISRDTSKNTVYLQKTSLRAEDTAVYYCASDTSYTAYGNFYFNLWGQGTLVTVSS
VL: EIVMTQSPSPLSASVGDRVIITCQSSQSVLNNNWLAWYQQKPGKAPKLLIYDASSLASGVPSRFSGSGSGAEFTLTISSLQPDDFATYYCQGEFSCGSADCNAFGQGTKLTVL
notes: Humanized 24D9; also called hu24D9; Parental
B2: MYT8500 (antibody, V domains shown)
VH: B1 VH with L57H
VL: B1 VL
notes: also called hu 24D9 HC Hydrophobicity Variant; hu24D9 HC Dev
B3: MYT8391 (antibody, V domains shown)
VH: EVQLVESGGGLVQPGGSLRLSCTASGLDFRRTNYICWVRQAPGKGLEWVGCIYIADVVHYYASWAKGRFTFSRDTSKNTVYLQMNSLRAEDTAVYYCARGADGGFHYGMDLWGQGTLVTVSS
VL: EIVMTQSPSTLSASVGDRVIITCQASQSIGNYLSWYQQKPGKAPKRLIYSASTLPSGVPSRFSGSGSGAEFTLTISSLQPDDFATYYCQNNYWLAGYGHPFGQGTKLTVL
notes: Humanized 15G7 variant (HC descriptor V106H); also called hu 15G7 HC his variant; hu 15G7 HC his scan variant
B4: MYT8416 (antibody, V domains shown)
VH: B3 VH with H106V
VL: B3 VL with W93H
notes: Humanized 15G7 variant (LC descriptor W109H); also called hu 15G7 LC his variant
B5: MYT8417 (antibody, V domains shown)
VH: B3 VH with H106V
VL: B3 VL with G96H
notes: Humanized 15G7 variant (LC descriptor G112H); also called hu 15G7 LC his variant
B6: MYT8415 (antibody, V domains shown)
VH: B3 VH with H106V
VL: B3 VL with Y92H
notes: Humanized 15G7 variant (LC descriptor Y108H); also called hu 15G7 LC his variant
B7: MYT3315-c-ADC (antibody, human IgG1, kappa, V domains shown)
VH: EVQLVESGGGLVQPGGSLRLSCAVSGFSLTSYGVHWVRQATGKGLEWLGVIWAGGSTNYNSALMSRLTISKENAKSSVYLQMNSLRAGDTAMYYCATHMITEDYYGMDYWGQGTTVTVSS
VL: DIVMTQSPDSLAVSLGERATINCKSSQSLLNSRTRKNYLAWYQQKPGQSPKLLIYWASTRHSGVPDRFSGSGSGTDFTLTISSLQAEDVAVYYCKQSYNLPTFGGGTKVEIKR
modifications: vcMMAE conjugated to the cysteine at position 205 of the light chain
B8: MYT2737-c-ADC (antibody, human IgG1, kappa, V domains shown)
VH: EVQLVQSGAEVKKPGASVKVSCKASGYKFSSYWIEWVKQAPGQGLEWIGEILPGSDTTNYNEKFKDRATFTSDTSINTAYMELSRLRSDDTAVYYCARDRGNYRAWFGYWGQGTLVTVSS
VL: DIQMTQSPSSLSASVGDRVTITCRASQDISNYLNWYQQKPGGAVKFLIYHTSRLHSGVPSRFSGSGSGTDYTLTISSLQPEDFATYFCQQGEALPWTFGGGTKVEIKR
modifications: vcMMAE conjugated to the cysteine at position 205 of the light chain
B9: MYT8391-c-ADC (antibody, human IgG1, kappa, V domains shown)
VH: B3 VH
VL: EIVMTQSPSTLSASVGDRVIITCQASQSIGNYLSWYQQKPGKAPKRLIYSASTLPSGVPSRFSGSGSGAEFTLTISSLQPDDFATYYCQNNYWLAGYGHPFGQGTKLTVLR
modifications: vcMMAE conjugated to the cysteine at position 205 of the light chain
B10: MYT8417-c-ADC (antibody, human IgG1, kappa, V domains shown)
VH: B3 VH with H106V
VL: B9 VL with G96H
modifications: vcMMAE conjugated to the cysteine at position 205 of the light chain
B11: MYT8415-c-ADC (antibody, human IgG1, kappa, V domains shown)
VH: B3 VH with H106V
VL: B9 VL with Y92H
modifications: vcMMAE conjugated to the cysteine at position 205 of the light chain
B12: MYT6111 (antibody, V domains shown)
VH: QEQLEESGGDLVKPGASLTLTCTASGLDFRRTNYICWVRQAPGKGLEWIGCIYIADVVHYYASWAKGRFTFSKTSSTTVTLQMTSLTAADTATYFCARGHDGGFVYGMDLWGPGTLVTVSS
VL: DVVMTQTPASVSEPVGGTVTIKCQASQSIGNYLSWYQQKPGQRPKRLIYSASTLPSGVPSRFKGAGSGTEFTLTISDLESADAATYYCQNNYWLAGYGHPFGGGTEVVVK
notes: chimeric rabbit 15G7 variant (rabbit variable domains, human constant regions); also called 15G7 VH A100H
B13: MYT6117 (antibody, V domains shown)
VH: B12 VH with H100A, Y106H
VL: B12 VL
notes: chimeric rabbit 15G7 variant (rabbit variable domains, human constant regions); also called 15G7 VH Y106H
B14: MYT6116 (antibody, V domains shown)
VH: B12 VH with H100A, V105H
VL: B12 VL
notes: chimeric rabbit 15G7 variant (rabbit variable domains, human constant regions); also called 15G7 VH V105H
B15: MYT6118 (antibody, V domains shown)
VH: B12 VH with H100A, G107H
VL: B12 VL
notes: chimeric rabbit 15G7 variant (rabbit variable domains, human constant regions); also called 15G7 VH G107H
B16: MYT6121 (antibody, V domains shown)
VH: B12 VH with H100A, L110H
VL: B12 VL
notes: chimeric rabbit 15G7 variant (rabbit variable domains, human constant regions); also called 15G7 VH L110H
B17: MYT6119 (antibody, V domains shown)
VH: B12 VH with H100A, M108H
VL: B12 VL
notes: chimeric rabbit 15G7 variant (rabbit variable domains, human constant regions); also called 15G7 VH M108H
B18: MYT6120 (antibody, V domains shown)
VH: B12 VH with H100A, D109H
VL: B12 VL
notes: chimeric rabbit 15G7 variant (rabbit variable domains, human constant regions); also called 15G7 VH D109H
B19: MYT6112 (antibody, V domains shown)
VH: B12 VH with H100A, D101H
VL: B12 VL
notes: chimeric rabbit 15G7 variant (rabbit variable domains, human constant regions); also called 15G7 VH D101H
B20: MYT6115 (antibody, V domains shown)
VH: B12 VH with H100A, F104H
VL: B12 VL
notes: chimeric rabbit 15G7 variant (rabbit variable domains, human constant regions); also called 15G7 VH F104H
B21: MYT6113 (antibody, V domains shown)
VH: B12 VH with H100A, G102H
VL: B12 VL
notes: chimeric rabbit 15G7 variant (rabbit variable domains, human constant regions); also called 15G7 VH G102H
B22: MYT6114 (antibody, V domains shown)
VH: B12 VH with H100A, G103H
VL: B12 VL
notes: chimeric rabbit 15G7 variant (rabbit variable domains, human constant regions); also called 15G7 VH G103H

Biological target: T1, LRRC15 on LRRC15 positive cell lines …
Experiment: cell binding on G292 cells (LRRC15 positive), pH 7.4
Parameters: unit not given here

| Affinity | Binder |
| --- | --- |
| 2.07 | B1 |
| 2.21 | B2 |
| 0.336 | B3 |
| 1.37 | B4 |
| 0.76 | B5 |
| 1.11 | B6 |

Biological target: T2, LRRC15 on the surface of LRRC15+ cells …
Experiment: cell-based or functional assay

| Binder | 20 nM Efficacy (cytotoxicity of candidates against SAOS-2 cells) |
| --- | --- |
| B7 | 22 |
| B8 | 20.2 |
| B9 | 63.8 |
| B10 | 42.5 |
| B11 | 38.7 |

Biological target: T3, Human LRRC15 Protein, His Tag (Acro …)
Experiment: BLI; dissociation pH 7.4 black, pH 5.4 grey [2/2); D00007 FIG. 1E (2/2]
Excerpt: For each individual plot, antigen binding proteins were captured on anti-human Fc biosensors and associated with LRRC15 at pH 7.4. Dissociation was at pH 7.4 (black) or pH 5.4 (grey). Major X-axis ticks=100 seconds, with left dashed vertical line=0 seconds. Major Y-axis ticks=0.5 nm and octet plots are shown MYT5712 and MYT6080-MYT6121.
Multiple LRRC15-binding monoclonal antibodies have been described in the literature and can be used as a template for engineering pH-dependent binding. We selected discovery RabMAb clone 15G7 (rabbit VH SEQ ID NO: 378, rabbit VL SEQ ID NO: 451; humanized VH SEQ ID NO: 382, humanized VL SEQ ID NO: 455) as a LRRC15-binding monoclonal antibody for pH-engineering via histidine scanning. […] To generate pH-dependent sequence variants, individual amino acid residues within the heavy chain CDRs were systematically substituted with a histidine (or alanine if H was already present in a given position; e.g., MYT6099), one at a time (rabbit, MYT6080-6121). Desirable mutations were transferred to a humanized framework (humanized, MYT 8387-8411). After allowing for four days of protein expression, cell culture supernatants were collected, quantified by SDS-PAGE analysis, and the pH dependence of the variant was evaluated using biolayer interferometry (BLI) on an Octet RED 96e instrument. Briefly, cell culture supernatants were diluted based on qualitative expression level of the variant determined by visual examination of SDS-PAGE gels, 5 μL of cell culture supernatant was diluted into 195 μL of 1×PBST, pH 7.4 for high expressors, 25 μL of cell culture supernatant was diluted into 175 μL of 1×PBST, pH 7.4 for medium expressors and 100 μL of cell culture supernatant was diluted into 100 μL of 1×PBST, pH 7.4 for low expressors for loading onto the sensor tips.

| binding result | Binder |
| --- | --- |
| binds | B12 |
| binds | B13 |
| binds | B14 |
| no binding (tested: 50 nM LRRC15) | B15 |
| binds | B16 |
| binds | B17 |
| binds | B18 |
| binds | B19 |
| binds | B20 |
| binds | B21 |
| binds | B22 |

Biological target: T1, LRRC15 on LRRC15 positive cell lines …
Experiment: cell binding on SAOS2 cells (LRRC15 positive), pH 7.4
Parameters: unit not given here

| Affinity | Binder |
| --- | --- |
| 1.65 | B1 |
| 1.22 | B2 |
| 0.483 | B3 |
| 1.15 | B4 |
| 0.554 | B5 |
| 0.754 | B6 |
